According to patent US20250304918A1 (Regeneron, published 2025):

T1: mouse CACNG1 (mouse, UniProt O70578 1-223)
T1 construct: In the functional entries it is the endogenous protein on muscle of D2-mdx mice or on C2C12 myotubes
T1 sequence: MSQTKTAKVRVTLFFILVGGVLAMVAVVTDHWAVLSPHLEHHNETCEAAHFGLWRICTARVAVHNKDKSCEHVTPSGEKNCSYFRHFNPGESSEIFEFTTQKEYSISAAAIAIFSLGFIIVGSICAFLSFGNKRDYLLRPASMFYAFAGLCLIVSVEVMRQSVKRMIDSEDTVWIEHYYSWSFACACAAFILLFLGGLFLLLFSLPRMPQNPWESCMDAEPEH

B1: CACNG1 mAb #5 (antibody, V domains shown)
VH: QVQLVESGGGVVQPGTSLRLSCAASGFTFSSYGMHWVRQAPGKGLEWVAVIWIDGSNKYYADSVKGRFTISRDNSKNTLYLQMNSLRAEDTAVYYCARRGGIVVAAPFDYWGQGTLVTVSS
VL: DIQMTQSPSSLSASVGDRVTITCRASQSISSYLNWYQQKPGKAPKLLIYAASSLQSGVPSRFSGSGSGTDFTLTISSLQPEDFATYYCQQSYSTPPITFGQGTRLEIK
notes: also called Antibody Designation 5; 14574/10783
B2: CACNG1 mAb #1 (antibody, V domains shown)
VH: QVQLVESGGGVVQPGRSLRLSCTASGITFRNYGMHWVRQAPGKGLEWVAVMWYDGSNKYYADSVKGRFTISGDNSKVYLQMNSLRAEDTAVYYCARRGTIRTAAPFDYWGQGTLVTVSS
VL: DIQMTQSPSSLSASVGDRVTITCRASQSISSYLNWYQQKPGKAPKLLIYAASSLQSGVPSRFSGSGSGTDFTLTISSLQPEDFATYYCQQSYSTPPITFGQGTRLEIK
notes: On AAV particles the heavy chain was in a hIgG4US backbone, fused at its C-terminus to SpyCatcher and joined to SpyTag on the capsid; a Fab form was also used; also called anti-hCACNG1 mAb #1; anti-CACNG1 mAb #1
B3: CACNG1 mAb #3 (antibody, V domains shown)
VH: QVQLVESGGGVVQPGRSLRLSCAASGFTFSTYGMHWVRQAPGKGLEWVAVIWHDGSDKYYVDSVKGRFSIARDNSKNTLYLQMNSLRVEDTGIYYCARRGIRGTVFDHWGLGTLVTVSS
VL: DIQMTQSPSTLSASVGDRVTLTCRASQSISNKLAWYQQKPGKAPNLLIYKASNLESGVPSRFSGSGSGTEFTLTISSLQPDDFATYYCQQYNSYSWTFGQGTKVEIK
notes: On AAV particles the heavy chain was fused at its C-terminus to SpyCatcher; also called Antibody Designation 3; 14572/10717

Experiments:
mouse CACNG1 [1] = biological target: T1, mouse CACNG1; assay: no binding assay described; definition of the label
mouse CACNG1 [2] = biological target: T1, mouse CACNG1; assay: no binding assay described; descriptor in figure legend
[3] = biological target: T2, human CACNG1 (Calcium Voltage-Gaged Auxiliary Subunit Gamma 1) (human, UniProt Q06432 1-222); assay: as above
T2 construct: In the transduction experiments it was expressed on 293 cells, human myotubes or muscle of humanized mice; also called hCACNG1; human CACNG1 protein
T2 sequence (Q06432 whole entry): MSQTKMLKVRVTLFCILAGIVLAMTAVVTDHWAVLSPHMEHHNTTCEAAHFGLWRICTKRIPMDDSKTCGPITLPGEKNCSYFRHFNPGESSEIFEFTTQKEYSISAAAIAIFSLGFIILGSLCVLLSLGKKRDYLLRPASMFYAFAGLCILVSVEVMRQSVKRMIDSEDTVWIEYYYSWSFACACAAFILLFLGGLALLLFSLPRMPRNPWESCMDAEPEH

Row | Binder | binding result (mouse CACNG1 [1]) | binding result (mouse CACNG1 [2]) | binding result [3]
1 | B1 | no binding |  | 
2 | B2 | no binding |  | 
3 | B3 |  | binds | binds
